# Experimental data published in US20220143024A1, “METHODS OF USING IMIPRIDONES” (Board of Regents, The University of Texas System, priority 2019, published 2022).
# Experiments:
# Assay in all cases: BioID-MS +ONC201
# [1] = molecular target: PTPMT1 (human) (UniProt Q8WUK0)
# [2] = molecular target: MTHFD2 (human) (UniProt P13995)
# [3] = molecular target: C20orf7 (human) (UniProt Q5TEU4)
# [4] = molecular target: CPOX (human) (UniProt P36551)
# [5] = molecular target: MTRF1 (human) (UniProt O75570)
# [6] = molecular target: MRM3 (human) (UniProt Q9HC36)
# [7] = molecular target: MRPS15 (human) (UniProt P82914)
# [8] = molecular target: GATB (human) (UniProt O75879)
# [9] = molecular target: SSBP1 (human) (UniProt Q04837)
# [10] = molecular target: HSDL2 (human) (UniProt Q6YN16)
# [11] = molecular target: PDE12 (human) (UniProt Q6L8Q7)
# [12] = molecular target: C12orf10 (human) (UniProt Q9HB07)
# [13] = molecular target: LETM1 (human) (UniProt O95202)
# [14] = molecular target: THEM4 (human) (UniProt Q5T1C6)
# [15] = molecular target: NMNAT3 (human) (UniProt Q96T66)
# [16] = molecular target: EFHA1 (human) (UniProt Q8IYU8)
# [17] = molecular target: GPT2 (human) (UniProt Q8TD30)
# [18] = molecular target: SLC27A2 (human) (UniProt O14975)
# [19] = molecular target: TARS2 (human) (UniProt Q9BW92)
# [20] = molecular target: GLRX5 (human) (UniProt Q86SX6)
# [21] = molecular target: TFAM (human) (UniProt Q00059)
# [22] = molecular target: PYCR1 (human) (UniProt P32322)
# [23] = molecular target: MGME1 (human) (UniProt Q9BQP7)
# [24] = molecular target: TBRG4 (human) (UniProt Q969Z0)
# [25] = molecular target: PNPT1 (human) (UniProt Q8TCS8)
# [26] = molecular target: C20orf72 (human) (UniProt Q9BQP7)
# [27] = molecular target: PET112 (human) (UniProt O75879)
# [28] = molecular target: ACAD10 (human) (UniProt Q6JQN1)
# [29] = molecular target: MRPS6 (human) (UniProt P82932)
# [30] = molecular target: ACO2 (human) (UniProt Q99798)
# [31] = molecular target: POLG (human) (UniProt P54098)
# [32] = molecular target: NARS2 (human) (UniProt Q96I59)
# [33] = molecular target: NDUFAF2 (human) (UniProt Q8N183)
# [34] = molecular target: NUDT1 (human) (UniProt P36639)
# [35] = molecular target: HSD17B10 (human) (UniProt Q99714)
# [36] = molecular target: NDUFA12 (human) (UniProt Q9UI09)
# [37] = molecular target: FASTKD5 (human) (UniProt Q7L8L6)
# [38] = molecular target: MRPL54 (human) (UniProt Q6P161)
# [39] = molecular target: SDHB (human) (UniProt P21912)
# [40] = molecular target: GUF1 (human) (UniProt Q8N442)
# [41] = molecular target: RNMTL1 (human) (UniProt Q9HC36)
# [42] = molecular target: SUCLA2 (human) (UniProt Q9P2R7)
# [43] = molecular target: GLS (human) (UniProt O94925)
# [44] = molecular target: BCKDHA (human) (UniProt P12694)
# [45] = molecular target: PPA2 (human) (UniProt Q9H2U2)
# [46] = molecular target: ACADSB (human) (UniProt P45954)
# [47] = molecular target: MPST (human) (UniProt P25325)
# [48] = molecular target: ATPAF1 (human) (UniProt Q5TC12)
# [49] = molecular target: CHCHD3 (human) (UniProt Q9NX63)
# [50] = molecular target: ACADM (human) (UniProt P11310)
# [51] = molecular target: EARS2 (human) (UniProt Q5JPH6)
# Sequence of SDHB (human) (P21912 29-280 limits assumed): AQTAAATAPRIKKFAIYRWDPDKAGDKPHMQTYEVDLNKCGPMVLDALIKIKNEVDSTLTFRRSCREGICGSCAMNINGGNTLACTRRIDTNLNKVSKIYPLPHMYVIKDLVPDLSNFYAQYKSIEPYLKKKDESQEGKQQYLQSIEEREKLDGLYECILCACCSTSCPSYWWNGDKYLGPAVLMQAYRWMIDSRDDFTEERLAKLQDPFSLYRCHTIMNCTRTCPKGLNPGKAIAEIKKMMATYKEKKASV
# Sequence of ATPAF1 (human) (Q5TC12 58-328 limits assumed): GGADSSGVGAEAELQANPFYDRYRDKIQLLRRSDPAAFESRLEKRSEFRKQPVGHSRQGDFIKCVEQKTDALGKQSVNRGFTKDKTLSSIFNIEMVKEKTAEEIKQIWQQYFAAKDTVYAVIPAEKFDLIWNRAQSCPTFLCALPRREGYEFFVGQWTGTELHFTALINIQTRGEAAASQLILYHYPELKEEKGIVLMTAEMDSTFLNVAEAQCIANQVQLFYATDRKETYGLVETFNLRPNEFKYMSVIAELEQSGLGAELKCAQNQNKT
# Sequence of EFHA1 (human) (Q8IYU8 23-434 limits assumed): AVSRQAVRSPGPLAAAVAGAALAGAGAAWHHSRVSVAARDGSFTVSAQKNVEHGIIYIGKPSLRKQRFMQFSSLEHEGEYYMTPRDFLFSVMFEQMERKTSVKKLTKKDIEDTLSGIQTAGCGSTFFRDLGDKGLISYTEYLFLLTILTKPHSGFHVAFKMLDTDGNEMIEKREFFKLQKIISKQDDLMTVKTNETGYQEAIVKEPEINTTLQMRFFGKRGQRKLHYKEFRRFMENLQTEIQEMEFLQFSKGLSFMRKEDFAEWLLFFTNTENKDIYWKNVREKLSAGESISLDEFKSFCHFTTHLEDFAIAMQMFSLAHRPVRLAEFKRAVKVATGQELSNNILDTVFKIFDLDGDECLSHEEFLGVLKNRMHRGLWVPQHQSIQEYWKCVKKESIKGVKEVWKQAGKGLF
# Sequence of SSBP1 (human) (Q04837 17-148 limits assumed): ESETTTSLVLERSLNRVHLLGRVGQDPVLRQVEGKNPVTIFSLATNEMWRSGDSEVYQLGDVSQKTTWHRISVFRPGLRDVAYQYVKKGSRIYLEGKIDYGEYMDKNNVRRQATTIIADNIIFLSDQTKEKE
# Sequence of CPOX (human) (P36551 111-454 limits assumed): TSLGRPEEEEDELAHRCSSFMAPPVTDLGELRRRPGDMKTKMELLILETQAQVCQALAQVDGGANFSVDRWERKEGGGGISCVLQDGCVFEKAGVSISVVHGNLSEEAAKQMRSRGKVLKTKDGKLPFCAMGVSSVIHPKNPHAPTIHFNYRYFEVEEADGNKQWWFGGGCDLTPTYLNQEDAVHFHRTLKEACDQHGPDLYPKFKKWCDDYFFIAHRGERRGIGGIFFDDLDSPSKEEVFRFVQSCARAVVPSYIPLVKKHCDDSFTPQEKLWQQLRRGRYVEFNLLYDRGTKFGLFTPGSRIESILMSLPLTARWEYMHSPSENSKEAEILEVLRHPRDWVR
# Sequence of BCKDHA (human) (P12694 46-445 limits assumed): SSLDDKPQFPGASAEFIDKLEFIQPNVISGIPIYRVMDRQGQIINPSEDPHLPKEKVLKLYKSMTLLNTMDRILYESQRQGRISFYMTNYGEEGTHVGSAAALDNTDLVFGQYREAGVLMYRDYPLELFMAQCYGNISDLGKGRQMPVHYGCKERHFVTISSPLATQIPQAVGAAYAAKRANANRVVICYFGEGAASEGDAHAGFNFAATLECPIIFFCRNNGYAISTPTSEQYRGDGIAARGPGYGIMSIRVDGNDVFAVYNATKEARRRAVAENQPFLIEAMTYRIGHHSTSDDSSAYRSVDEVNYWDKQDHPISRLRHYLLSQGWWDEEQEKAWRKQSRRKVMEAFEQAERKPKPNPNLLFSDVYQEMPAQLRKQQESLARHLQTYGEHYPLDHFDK
# Sequence of PTPMT1 (human) (Q8WUK0 28-201 limits assumed): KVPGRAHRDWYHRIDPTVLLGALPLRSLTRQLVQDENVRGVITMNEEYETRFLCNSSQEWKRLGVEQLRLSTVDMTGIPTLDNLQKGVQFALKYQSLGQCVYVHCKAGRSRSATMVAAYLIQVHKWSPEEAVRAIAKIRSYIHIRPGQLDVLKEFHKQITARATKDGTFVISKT
# Sequence of C12orf10 (human) (Q9HB07 48-376 limits assumed): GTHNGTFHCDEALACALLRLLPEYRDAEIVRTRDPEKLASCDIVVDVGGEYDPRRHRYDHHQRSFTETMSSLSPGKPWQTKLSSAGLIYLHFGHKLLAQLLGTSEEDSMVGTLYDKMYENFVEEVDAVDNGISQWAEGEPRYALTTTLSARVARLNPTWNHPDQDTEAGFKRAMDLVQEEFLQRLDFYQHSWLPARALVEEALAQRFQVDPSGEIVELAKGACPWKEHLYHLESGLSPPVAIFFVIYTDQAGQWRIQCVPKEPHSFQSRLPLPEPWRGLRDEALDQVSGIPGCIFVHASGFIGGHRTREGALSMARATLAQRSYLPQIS
# Sequence of HSDL2 (human) (Q6YN16 whole entry): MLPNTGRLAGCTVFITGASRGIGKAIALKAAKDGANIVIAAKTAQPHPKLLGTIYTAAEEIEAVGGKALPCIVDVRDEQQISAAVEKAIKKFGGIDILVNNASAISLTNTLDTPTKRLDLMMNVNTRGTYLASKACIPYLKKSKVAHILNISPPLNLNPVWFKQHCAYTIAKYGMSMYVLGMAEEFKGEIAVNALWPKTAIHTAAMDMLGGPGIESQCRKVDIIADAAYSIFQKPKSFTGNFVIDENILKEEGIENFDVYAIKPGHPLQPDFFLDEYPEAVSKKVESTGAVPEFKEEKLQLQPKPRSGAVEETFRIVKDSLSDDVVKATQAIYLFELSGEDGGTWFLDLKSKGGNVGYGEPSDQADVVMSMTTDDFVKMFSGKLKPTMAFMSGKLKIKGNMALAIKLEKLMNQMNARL
# Sequence of ACO2 (human) (Q99798 28-780 limits assumed): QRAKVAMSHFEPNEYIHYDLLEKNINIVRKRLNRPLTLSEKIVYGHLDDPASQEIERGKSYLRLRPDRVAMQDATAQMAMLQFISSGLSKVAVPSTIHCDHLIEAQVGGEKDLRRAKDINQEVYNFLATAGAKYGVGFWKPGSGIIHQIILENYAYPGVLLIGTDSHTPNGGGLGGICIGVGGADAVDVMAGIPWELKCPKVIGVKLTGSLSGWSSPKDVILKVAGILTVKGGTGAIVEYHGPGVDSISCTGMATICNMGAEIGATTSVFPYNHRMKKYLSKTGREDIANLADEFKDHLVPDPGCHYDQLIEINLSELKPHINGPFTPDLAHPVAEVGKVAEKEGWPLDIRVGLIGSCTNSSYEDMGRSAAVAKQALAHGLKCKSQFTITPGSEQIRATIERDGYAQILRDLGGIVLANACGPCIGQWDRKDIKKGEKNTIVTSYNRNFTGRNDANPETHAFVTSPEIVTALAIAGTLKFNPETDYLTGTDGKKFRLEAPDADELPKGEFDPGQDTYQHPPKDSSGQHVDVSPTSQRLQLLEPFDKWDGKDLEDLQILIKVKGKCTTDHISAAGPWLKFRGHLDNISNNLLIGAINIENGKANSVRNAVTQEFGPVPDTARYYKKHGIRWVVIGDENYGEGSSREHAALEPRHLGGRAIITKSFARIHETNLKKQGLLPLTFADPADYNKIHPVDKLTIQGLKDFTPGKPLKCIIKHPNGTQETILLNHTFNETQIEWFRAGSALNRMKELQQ
# Sequence of PET112 (human) (O75879 31-557 limits assumed): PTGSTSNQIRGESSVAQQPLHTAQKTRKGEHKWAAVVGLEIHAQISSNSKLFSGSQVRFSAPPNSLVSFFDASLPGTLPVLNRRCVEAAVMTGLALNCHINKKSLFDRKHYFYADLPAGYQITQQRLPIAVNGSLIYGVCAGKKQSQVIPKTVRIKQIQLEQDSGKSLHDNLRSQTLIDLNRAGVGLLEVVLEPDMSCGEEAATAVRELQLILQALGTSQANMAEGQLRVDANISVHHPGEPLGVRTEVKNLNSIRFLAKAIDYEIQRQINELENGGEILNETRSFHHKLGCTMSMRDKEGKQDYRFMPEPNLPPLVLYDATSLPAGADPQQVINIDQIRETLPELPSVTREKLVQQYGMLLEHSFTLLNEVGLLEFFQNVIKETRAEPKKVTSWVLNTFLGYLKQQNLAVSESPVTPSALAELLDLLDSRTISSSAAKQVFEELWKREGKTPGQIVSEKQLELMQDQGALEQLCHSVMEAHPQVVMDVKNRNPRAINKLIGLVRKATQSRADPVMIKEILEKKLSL
# Sequence of GATB (human) (O75879 31-557 limits assumed): as above
# Sequence of NDUFAF2 (human) (Q8N183 whole entry): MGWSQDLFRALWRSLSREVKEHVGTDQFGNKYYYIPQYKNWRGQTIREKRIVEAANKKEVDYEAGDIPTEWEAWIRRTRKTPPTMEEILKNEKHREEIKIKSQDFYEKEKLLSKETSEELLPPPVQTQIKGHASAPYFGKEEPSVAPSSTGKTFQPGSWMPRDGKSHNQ
# Sequence of TFAM (human) (Q00059 43-246 limits assumed): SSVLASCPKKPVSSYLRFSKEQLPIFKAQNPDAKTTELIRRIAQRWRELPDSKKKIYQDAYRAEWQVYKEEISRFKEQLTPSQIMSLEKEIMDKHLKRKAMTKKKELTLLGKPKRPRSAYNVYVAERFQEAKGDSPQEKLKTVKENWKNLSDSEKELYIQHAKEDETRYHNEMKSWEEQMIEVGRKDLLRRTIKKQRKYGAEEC
# Sequence of MTRF1 (human) (O75570 62-445 limits assumed): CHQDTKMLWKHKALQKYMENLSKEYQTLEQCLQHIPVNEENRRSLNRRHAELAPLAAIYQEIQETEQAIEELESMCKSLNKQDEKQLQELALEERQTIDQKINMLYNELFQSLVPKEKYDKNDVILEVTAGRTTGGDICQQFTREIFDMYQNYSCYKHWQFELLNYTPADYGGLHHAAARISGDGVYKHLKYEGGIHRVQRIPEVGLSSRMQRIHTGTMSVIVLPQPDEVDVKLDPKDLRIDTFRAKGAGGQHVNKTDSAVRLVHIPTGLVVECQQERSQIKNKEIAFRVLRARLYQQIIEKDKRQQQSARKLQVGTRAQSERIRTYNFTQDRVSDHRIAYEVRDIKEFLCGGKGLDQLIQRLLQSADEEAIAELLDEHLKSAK
substance,measurement,setting,value
FlagBirA-ClpP (WT) (from UniProt P06709 1-321; Q16740 57-277) (enzyme),Log2 Fold change (vs control),[1],-0.48 log2
same,Log2 Fold change (vs control),[2],-1.43 log2
same,Log2 Fold change (vs control),[3],-1.21 log2
same,Log2 Fold change (vs control),[4],-2.12 log2
same,Log2 Fold change (vs control),[5],-4.25 log2
same,Log2 Fold change (vs control),[6],-1.62 log2
same,Log2 Fold change (vs control),[7],-4.91 log2
same,Log2 Fold change (vs control),[8],-1.84 log2
same,Log2 Fold change (vs control),[9],0.07 log2
same,Log2 Fold change (vs control),[10],-0.71 log2
same,Log2 Fold change (vs control),[11],-5.78 log2
same,Log2 Fold change (vs control),[12],-3.75 log2
same,Log2 Fold change (vs control),[13],-0.94 log2
same,Log2 Fold change (vs control),[14],-0.88 log2
same,Log2 Fold change (vs control),[15],-4 log2
same,Log2 Fold change (vs control),[16],-0.47 log2
same,Log2 Fold change (vs control),[17],-3.7 log2
same,Log2 Fold change (vs control),[18],-1.81 log2
same,Log2 Fold change (vs control),[19],-1.95 log2
same,Log2 Fold change (vs control),[20],-5.21 log2
same,Log2 Fold change (vs control),[21],-1.61 log2
same,Log2 Fold change (vs control),[22],-2.16 log2
same,Log2 Fold change (vs control),[23],0.27 log2
same,Log2 Fold change (vs control),[24],0.28 log2
same,Log2 Fold change (vs control),[25],0.32 log2
same,Log2 Fold change (vs control),[26],-3.52 log2
same,Log2 Fold change (vs control),[27],-3.03 log2
same,Log2 Fold change (vs control),[28],-4.09 log2
same,Log2 Fold change (vs control),[29],-4.52 log2
same,Log2 Fold change (vs control),[30],-5.46 log2
same,Log2 Fold change (vs control),[31],-4.32 log2
same,Log2 Fold change (vs control),[32],-1.36 log2
same,Log2 Fold change (vs control),[33],-7.94 log2
same,Log2 Fold change (vs control),[34],-1 log2
same,Log2 Fold change (vs control),[35],0.01 log2
same,Log2 Fold change (vs control),[36],-7.55 log2
same,Log2 Fold change (vs control),[37],-4.91 log2
same,Log2 Fold change (vs control),[38],-4 log2
same,Log2 Fold change (vs control),[39],-0.82 log2
same,Log2 Fold change (vs control),[40],-4.04 log2
same,Log2 Fold change (vs control),[41],0.05 log2
same,Log2 Fold change (vs control),[42],-0.71 log2
same,Log2 Fold change (vs control),[43],-0.71 log2
same,Log2 Fold change (vs control),[44],-4.32 log2
same,Log2 Fold change (vs control),[45],-1.38 log2
same,Log2 Fold change (vs control),[46],-1.76 log2
same,Log2 Fold change (vs control),[47],-4.46 log2
same,Log2 Fold change (vs control),[48],-2.17 log2
same,Log2 Fold change (vs control),[49],-3.46 log2
same,Log2 Fold change (vs control),[50],-1.06 log2
same,Log2 Fold change (vs control),[51],-1.29 log2
